Changes are numbered by the printed parent chain. Where two headings read alike, the source gives them in different places.
Legend:
human BCMA (on cells) [1] = target: T1, human BCMA (on cells) (human, UniProt Q02223 1-184); test: FACS, human BCMA-CHOK1 cells, anti-human IgG Fc PE secondary, MFI
T1 construct: Full length, on transfected CHOK1 cells; also used as the target of the BCMA/CD3 bispecific Teclistamab on NCI-H929 and RPMI8226 cells; also called Human BCMA CHOK1
T1 sequence: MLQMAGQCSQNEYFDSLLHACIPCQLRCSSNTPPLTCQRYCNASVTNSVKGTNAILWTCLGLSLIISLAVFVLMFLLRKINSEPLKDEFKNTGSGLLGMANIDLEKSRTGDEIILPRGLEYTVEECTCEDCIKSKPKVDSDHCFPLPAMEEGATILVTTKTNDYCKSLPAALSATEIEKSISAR

[2] = target: T2, cynomolgus monkey BCMA (on cells) (cynomolgus monkey, UniProt Q02223 1-184 (human entry)); test: FACS, cynomolgus monkey BCMA-CHOK1 cells, anti-human IgG Fc PE secondary, MFI
T2 construct: also called cyno-BCMA; cyno BCMA CHOK1

human BCMA (on cells) [3] = target: T1, human BCMA (on cells); test: FACS, human BCMA-CHOK1 cells, anti-human IgG Fc PE secondary, MFI; remark: listed apart in the source
[4] = target: T2, cynomolgus monkey BCMA (on cells); test: FACS on cynomolgus BCMA-CHOK1 cells
human BCMA (on cells) [5] = target: T1, human BCMA (on cells); test: FACS on human BCMA-CHOK1 cells

T2 sequence (Q02223 other isoform, or with tags, fused parts or gaps): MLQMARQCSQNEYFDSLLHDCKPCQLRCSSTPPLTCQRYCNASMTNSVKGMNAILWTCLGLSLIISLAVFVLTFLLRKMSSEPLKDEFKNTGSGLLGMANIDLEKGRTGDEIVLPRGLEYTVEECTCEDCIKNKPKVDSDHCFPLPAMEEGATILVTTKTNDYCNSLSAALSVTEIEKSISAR

B1: 19CH-16 (antibody, IgG1, V domains shown)
VH: QGQMQQSGAELVKPGTSVKLSCKTSGFTFRSSYISWLQQKPGQSLEWIAWIYAGSGNTDYNQKFTGKAQLTVDTSSSTAYMQFSSLTTEDSAIYYCARHYDPPHYFDYWGQGTTLTVSS
VL: QIVLTQSPAIMSASPGEKVTMTCSASSGVSHMHWYQQKSGTSPKRWIYDTSKLTSGVPTRFSGTGSGTSYSLSISSMEAEDAATYYCQQWSRNPWTFGGGTKLEIK
notes: also called anti-BCMA chimeric antibody (19CH-16) derived from mouse hybridoma
With B1 the “EC50 (read off the curve)” value (human BCMA (on cells) [1]) was ~2 nM.

B2: 19CH-16H2L2 (antibody, IgG1, V domains shown)
VH: QVQLVQSGAEVKKPGASVKVSCKASGFTFRSSYISWVRQAPGQGLEWIAWIYAGSGNTDYNQKFTGRVTMTVDTSTSTVYMELSSLRSEDTAVYYCARHYDPPHYFDYWGQGTLVTVSS
VL: DIQLTQSPSSLSASVGDRVTITCSASSGVSHMHWYQQKPGKAPKRWIYDTSKLTSGVPSRFSGSGSGTDFTLTISSLQPEDFATYYCQQWSRNPWTFGQGTKVEIK
notes: also called humanized anti-BCMA antibody (19CH-16H2L2)
With B2 the “EC50 (read off the curve)” value [2] was ~3 nM and the “EC50 (read off the curve)” value (human BCMA (on cells) [3]) was ~1 nM.

B3: 19CH-16H2L2-QT (antibody, V domains shown)
VH: B2 VH with N57Q
VL: B2 VL
In the case of B3, the EC50 [4] is reported as 9.05 nM and the EC50 (human BCMA (on cells) [5]) is reported as 7.76 nM.

Reference: patent publication US20260234241A1 (SHANGHAI QILU PHARMACEUTICAL RESEARCH AND DEVELOPMENT CENTRE, published 2026)
